The values below come from patent US20170158755A1 (PROTHENA BIOSCIENCES, published 2017).

Broadly, the Kd is the concentration at which binding is half-saturated. Read a high Kd as weaker binding. Broadly, the koff is the rate constant with which the complex falls apart. Low values mean a long-lived complex, high ones a short-lived complex. For orientation: kon means the second-order rate constant of association. The low end stands for slow association, the high end for fast association.

Numbering of substitutions follows the chain as printed.

Assay [1] deals with T1, mouse LAMA4 in mouse tissue (mouse, UniProt P97927 25-1816).
T1 construct: Native protein in tissue sections, there part of laminin trimers; also called LAMA4-positive mouse tissue; LAMA4-positive mouse brain vasculature
Kind of assay: staining of WT versus LAMA4.KO mouse brain cryosections, anti-human-594 secondary. From the text:
The specific binding between the 19C12 humanized variants (19C12 chi, H2L3, H2L4, H2L6, H3L6 and isotype control) and LAMA4 was further tested by assessing the variants' ability to stain wild-type vs. LAMA4.KO mouse brains. Humanized monoclonal antibodies against LAMA4 were generated as described in the Materials and Methods. Perfused and fresh frozen WT and LAMA4.KO mouse brains were cryosectioned, acetone-fixed, and stained with LAMA4 primary antibody followed by anti-human-594 secondary antibodies.

For assay [2], the target named is T2, human LAMA4 G domain (LG1-5) displayed on 293 cells (human, UniProt Q16363 830-1821).
T2 construct: the vector's tags and membrane anchor are not written here; also called LAMA4-displaying human 293 cells; full length
T2 sequence: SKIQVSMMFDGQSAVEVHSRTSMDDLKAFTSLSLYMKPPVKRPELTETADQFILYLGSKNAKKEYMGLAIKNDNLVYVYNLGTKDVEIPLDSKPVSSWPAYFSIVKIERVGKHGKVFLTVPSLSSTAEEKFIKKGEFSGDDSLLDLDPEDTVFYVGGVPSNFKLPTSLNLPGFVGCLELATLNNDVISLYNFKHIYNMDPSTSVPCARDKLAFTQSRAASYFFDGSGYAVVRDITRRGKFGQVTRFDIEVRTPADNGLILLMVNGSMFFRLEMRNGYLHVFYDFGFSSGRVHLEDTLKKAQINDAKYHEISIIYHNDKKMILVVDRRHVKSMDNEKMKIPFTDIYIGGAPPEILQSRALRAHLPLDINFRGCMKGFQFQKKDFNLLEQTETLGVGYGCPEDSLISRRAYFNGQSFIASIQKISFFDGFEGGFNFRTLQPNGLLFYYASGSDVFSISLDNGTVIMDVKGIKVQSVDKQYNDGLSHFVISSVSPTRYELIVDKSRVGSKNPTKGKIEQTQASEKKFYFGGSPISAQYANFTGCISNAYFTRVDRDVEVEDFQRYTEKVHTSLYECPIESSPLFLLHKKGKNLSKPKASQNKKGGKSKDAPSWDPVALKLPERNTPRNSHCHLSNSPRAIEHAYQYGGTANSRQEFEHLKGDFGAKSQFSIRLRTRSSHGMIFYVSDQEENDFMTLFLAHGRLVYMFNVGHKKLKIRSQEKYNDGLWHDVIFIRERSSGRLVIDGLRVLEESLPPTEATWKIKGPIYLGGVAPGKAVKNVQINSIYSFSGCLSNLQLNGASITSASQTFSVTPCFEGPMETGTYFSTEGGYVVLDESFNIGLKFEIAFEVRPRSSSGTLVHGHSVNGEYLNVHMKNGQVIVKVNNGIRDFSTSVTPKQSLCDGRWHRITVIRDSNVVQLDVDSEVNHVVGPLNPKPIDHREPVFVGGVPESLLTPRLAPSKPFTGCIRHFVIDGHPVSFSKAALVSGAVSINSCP
Kind of assay: flow cytometry on LAMA4-displaying 293 cells, anti-human-650 secondary antibody; MFI. As to the method:
(§1) The 19C12 variants chimeric 19C12, H2L3, H2L4, H2L6, H3L6, and isotype control were tested for their ability to block the binding of LAMA4 to its ligand MCAM (FIG. 15) and to bind LAMA4-displaying cells (FIG. 16). To test LAMA4 binding capacity, serially diluted antibodies were pre-incubated with LAMA4-displaying human 293 cells, followed by anti-human-650 secondary antibody incubation. […] Fluorescent signal was assessed via flow cytometric analyses and plotted as mean fluorescence intensity (MFI). All 19C12 variants retained their MCAM blocking and LAMA4 binding activity when compared with chimeric 19C12.
(In general: A flow cytometer gives signals particle by particle.)

The target of assay [3] is T3, recombinant laminin 411 (human, UniProt P07942 22-1786; P11047 34-1609, limits assumed).
T3 construct: also called LAMA4 in complex with its gamma1 and beta1 chains
Put plainly: flow cytometric blocking assay; antibody pre-incubated with 650-labeled laminin 411; blocked partner: human MCAM on CHO cells; MFI. Here is the method: as §1
Following two washes with FACS buffer (1% FBS in PBS), cells were resuspended with 650-conjugated anti-pan-laminin antibody (1:1000; Novus Biologicals) and incubated for 20 min at 4° C., and washed again. Cells were analyzed for pan-laminin reactivity by flow cytometry using standard procedures.

Assay [4] deals with T4, human His-laminin-α4 (human, UniProt Q16363 833-1823, limits assumed).
T4 construct: Bought His-tagged recombinant protein (R & D Systems); also called Human LAMA4; human His-laminin-α4 (R & D Systems)
T4 sequence: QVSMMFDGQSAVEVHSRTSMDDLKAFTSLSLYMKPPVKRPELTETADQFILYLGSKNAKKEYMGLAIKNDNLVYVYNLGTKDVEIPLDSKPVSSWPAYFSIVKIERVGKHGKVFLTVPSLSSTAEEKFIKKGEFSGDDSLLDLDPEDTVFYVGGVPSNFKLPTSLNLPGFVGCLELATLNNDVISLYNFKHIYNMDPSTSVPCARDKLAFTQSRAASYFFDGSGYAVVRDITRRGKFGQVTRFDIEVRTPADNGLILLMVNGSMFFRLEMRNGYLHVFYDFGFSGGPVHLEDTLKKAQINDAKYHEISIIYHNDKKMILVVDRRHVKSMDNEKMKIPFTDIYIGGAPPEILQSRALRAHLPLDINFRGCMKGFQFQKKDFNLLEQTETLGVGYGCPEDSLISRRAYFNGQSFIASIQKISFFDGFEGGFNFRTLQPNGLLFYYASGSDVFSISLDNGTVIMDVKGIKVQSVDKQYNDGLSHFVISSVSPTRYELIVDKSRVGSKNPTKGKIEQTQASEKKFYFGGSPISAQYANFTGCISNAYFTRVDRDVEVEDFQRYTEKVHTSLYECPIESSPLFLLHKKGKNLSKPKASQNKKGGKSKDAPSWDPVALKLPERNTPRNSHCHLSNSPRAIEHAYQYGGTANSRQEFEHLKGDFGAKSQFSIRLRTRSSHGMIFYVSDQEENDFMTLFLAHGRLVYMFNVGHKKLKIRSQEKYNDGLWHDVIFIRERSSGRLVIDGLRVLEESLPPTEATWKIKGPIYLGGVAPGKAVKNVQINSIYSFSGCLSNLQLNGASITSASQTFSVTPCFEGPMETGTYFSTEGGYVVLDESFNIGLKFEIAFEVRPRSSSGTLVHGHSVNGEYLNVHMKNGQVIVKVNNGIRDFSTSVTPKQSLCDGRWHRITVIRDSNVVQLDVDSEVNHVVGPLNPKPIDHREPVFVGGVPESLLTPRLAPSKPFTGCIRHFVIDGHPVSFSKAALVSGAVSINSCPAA
Kind of assay: Biacore SPR. On the technique in general: SPR reads the build-up and loss of mass on a sensor chip optically.

Assay [5] deals with T5, mouse His-laminin-α4 (mouse, UniProt P97927 826-1816, limits assumed).
T5 construct: Bought His-tagged recombinant protein; also called Murine LAMA4; recombinant mouse LAMA4-His
T5 sequence (looked up): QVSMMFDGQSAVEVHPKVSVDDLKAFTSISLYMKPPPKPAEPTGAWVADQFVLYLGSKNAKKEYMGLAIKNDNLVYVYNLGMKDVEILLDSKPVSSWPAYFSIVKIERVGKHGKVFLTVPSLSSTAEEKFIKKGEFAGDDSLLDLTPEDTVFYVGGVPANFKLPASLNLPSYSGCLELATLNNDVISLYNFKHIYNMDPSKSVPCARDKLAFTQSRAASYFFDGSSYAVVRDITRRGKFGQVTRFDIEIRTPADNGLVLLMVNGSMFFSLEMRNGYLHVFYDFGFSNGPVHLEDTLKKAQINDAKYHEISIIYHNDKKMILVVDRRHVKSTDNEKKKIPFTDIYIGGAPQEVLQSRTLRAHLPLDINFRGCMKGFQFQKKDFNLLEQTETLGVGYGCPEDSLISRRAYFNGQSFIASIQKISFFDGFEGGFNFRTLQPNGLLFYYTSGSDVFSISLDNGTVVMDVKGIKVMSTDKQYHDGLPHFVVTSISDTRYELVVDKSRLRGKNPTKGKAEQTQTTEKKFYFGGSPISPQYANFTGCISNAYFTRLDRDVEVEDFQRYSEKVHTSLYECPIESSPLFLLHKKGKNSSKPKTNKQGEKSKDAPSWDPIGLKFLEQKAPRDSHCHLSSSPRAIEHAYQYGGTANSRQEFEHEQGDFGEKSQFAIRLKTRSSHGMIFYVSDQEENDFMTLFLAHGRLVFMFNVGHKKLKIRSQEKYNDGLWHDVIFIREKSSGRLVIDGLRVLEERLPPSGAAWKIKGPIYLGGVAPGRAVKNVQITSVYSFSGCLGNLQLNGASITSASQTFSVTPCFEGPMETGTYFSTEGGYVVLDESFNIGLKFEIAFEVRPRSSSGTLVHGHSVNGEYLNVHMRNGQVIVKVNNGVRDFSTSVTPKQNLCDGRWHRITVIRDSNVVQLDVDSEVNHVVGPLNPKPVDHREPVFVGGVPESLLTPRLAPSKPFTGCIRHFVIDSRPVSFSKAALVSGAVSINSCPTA
Kind of assay: Biacore SPR.

Assay [6] concerns the target T6, LGde2, human LAMA4 G domain with LG2 deleted, displayed on 293 cells (human, UniProt Q16363 830-1821, limits assumed).
T6 construct: pDisplay construct on 293 cells; vector tags and anchor not written here; also called LGde2 (LG13)
T6 sequence: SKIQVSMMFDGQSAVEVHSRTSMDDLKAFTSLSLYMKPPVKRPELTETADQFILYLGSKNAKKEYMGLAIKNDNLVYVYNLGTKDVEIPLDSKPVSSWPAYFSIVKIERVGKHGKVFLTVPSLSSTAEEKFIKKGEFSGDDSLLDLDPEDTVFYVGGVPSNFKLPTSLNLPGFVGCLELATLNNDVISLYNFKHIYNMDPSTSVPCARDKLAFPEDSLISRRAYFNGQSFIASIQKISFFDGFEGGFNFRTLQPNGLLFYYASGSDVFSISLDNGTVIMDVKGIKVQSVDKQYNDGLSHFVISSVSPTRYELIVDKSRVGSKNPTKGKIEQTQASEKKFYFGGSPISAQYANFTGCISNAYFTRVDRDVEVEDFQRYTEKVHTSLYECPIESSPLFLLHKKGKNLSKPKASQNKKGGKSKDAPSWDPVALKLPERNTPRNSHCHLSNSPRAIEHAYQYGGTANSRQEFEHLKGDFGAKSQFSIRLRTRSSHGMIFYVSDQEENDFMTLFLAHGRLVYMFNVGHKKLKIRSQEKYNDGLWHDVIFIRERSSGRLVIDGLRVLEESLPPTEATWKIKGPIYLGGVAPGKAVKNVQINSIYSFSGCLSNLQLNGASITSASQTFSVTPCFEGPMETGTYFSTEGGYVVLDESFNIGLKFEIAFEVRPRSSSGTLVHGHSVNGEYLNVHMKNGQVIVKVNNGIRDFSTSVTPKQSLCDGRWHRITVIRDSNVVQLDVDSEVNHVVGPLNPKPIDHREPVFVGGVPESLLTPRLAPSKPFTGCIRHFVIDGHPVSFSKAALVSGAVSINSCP
Put plainly: flow cytometry on 293 cells displaying LAMA4 G-domain variants; % binding. An excerpt: LGde1 has a full-length G domain (i.e., LG1-5) with LG1 deleted, LGde2 has a full-length G domain with LG2 deleted, and LGde3 has a full-length G domain with LG3 deleted. Recombinant MCAM-Fc protein was able to specifically bind 293 cells expressing LAMA4 variants LG1-5, LG1-3, and LGde 1 (LG23), but not 293 cells expressing LAMA 4 variants LG4-5, LGde2 (LG13), or LGde3 (LG12).

T3 sequence (chain, as listed by the source limits assumed, chain 1 of 3): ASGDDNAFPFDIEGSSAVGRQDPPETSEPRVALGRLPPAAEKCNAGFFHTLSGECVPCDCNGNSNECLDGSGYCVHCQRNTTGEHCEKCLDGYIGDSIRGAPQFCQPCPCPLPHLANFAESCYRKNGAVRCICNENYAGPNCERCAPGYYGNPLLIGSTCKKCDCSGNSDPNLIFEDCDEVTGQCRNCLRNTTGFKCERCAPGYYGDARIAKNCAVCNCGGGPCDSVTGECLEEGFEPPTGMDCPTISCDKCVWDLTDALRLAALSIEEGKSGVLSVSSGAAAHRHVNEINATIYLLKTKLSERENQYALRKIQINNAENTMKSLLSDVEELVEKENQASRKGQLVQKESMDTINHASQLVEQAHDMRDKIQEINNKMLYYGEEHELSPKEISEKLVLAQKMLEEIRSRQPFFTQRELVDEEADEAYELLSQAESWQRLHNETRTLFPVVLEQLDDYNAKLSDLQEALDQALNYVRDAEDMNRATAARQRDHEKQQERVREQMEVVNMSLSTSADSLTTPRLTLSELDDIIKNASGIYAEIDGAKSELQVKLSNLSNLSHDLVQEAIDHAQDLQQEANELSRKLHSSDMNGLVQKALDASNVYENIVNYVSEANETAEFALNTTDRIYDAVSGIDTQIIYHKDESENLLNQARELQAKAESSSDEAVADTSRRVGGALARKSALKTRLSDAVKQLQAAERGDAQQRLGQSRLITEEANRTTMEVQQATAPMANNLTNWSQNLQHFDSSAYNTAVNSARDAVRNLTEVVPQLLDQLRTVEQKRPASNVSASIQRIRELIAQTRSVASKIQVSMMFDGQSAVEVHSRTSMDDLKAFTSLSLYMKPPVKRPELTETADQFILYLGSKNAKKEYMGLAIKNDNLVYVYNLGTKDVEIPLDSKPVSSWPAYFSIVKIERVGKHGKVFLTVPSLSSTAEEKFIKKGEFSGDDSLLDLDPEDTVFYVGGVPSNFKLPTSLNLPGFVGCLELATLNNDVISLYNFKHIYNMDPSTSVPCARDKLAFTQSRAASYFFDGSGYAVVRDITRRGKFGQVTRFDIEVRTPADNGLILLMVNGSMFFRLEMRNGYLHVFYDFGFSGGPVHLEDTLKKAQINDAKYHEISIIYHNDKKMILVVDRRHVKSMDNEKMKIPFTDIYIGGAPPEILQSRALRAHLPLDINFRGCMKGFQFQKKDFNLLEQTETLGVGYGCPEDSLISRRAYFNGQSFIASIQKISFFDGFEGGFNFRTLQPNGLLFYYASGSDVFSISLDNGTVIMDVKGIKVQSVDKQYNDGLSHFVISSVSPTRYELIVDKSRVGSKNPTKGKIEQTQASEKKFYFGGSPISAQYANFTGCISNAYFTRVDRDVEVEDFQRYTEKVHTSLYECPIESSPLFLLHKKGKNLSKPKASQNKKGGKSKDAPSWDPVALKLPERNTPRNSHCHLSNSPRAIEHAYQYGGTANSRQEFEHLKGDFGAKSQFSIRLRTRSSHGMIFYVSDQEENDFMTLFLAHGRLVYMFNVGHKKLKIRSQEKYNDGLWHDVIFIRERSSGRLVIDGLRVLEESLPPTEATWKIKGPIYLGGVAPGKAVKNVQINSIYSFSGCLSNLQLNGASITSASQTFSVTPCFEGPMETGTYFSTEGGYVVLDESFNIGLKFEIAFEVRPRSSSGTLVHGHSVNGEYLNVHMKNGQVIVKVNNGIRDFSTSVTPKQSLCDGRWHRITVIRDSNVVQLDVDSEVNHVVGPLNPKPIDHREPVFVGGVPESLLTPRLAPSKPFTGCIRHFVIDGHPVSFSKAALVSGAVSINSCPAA
T3 sequence (P07942 22-1786 limits assumed, chain 2 of 3): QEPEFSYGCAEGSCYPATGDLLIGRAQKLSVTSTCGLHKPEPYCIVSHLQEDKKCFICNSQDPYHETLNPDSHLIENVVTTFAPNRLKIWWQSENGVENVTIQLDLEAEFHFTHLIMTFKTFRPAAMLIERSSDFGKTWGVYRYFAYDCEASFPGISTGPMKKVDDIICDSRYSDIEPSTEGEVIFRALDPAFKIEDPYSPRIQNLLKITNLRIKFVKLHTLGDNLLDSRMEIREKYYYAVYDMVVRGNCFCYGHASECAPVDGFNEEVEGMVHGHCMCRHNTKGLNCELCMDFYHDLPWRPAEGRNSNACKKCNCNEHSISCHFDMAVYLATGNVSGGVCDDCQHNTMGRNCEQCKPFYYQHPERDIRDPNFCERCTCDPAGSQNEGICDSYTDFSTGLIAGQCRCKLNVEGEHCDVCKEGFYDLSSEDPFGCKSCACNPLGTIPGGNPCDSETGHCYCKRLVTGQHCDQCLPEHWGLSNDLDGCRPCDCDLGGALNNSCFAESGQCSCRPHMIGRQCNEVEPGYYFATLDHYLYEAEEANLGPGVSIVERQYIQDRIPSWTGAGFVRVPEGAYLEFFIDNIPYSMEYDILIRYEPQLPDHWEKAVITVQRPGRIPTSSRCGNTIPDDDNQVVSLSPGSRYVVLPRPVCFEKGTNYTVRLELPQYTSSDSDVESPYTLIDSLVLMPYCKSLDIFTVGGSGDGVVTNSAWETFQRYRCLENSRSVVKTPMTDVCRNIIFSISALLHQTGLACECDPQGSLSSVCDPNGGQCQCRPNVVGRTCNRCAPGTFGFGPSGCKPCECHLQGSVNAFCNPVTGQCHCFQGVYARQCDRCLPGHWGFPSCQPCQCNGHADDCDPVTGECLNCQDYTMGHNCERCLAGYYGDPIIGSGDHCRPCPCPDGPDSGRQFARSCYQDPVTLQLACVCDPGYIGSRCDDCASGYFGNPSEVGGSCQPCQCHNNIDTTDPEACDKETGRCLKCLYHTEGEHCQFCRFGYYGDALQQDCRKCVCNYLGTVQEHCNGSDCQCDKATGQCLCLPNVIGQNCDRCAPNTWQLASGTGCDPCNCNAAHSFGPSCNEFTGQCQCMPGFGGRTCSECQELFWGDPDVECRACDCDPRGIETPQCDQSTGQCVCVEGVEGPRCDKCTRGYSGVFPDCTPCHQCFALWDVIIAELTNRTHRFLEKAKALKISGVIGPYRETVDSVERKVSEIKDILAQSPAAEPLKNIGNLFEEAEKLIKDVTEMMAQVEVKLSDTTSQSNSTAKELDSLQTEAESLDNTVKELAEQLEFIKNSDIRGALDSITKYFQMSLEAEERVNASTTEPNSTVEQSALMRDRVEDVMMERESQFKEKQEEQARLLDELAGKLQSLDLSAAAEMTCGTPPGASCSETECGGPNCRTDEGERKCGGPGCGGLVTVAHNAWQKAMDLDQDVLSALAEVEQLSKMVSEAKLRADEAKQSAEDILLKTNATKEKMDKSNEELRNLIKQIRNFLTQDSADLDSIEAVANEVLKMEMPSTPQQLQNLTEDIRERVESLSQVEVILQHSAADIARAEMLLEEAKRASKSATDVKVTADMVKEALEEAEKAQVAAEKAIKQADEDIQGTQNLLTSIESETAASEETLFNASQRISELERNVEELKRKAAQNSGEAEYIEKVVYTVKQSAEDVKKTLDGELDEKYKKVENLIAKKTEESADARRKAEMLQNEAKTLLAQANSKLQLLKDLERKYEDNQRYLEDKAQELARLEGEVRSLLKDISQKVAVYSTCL
T3 sequence (P11047 34-1609 limits assumed, chain 3 of 3): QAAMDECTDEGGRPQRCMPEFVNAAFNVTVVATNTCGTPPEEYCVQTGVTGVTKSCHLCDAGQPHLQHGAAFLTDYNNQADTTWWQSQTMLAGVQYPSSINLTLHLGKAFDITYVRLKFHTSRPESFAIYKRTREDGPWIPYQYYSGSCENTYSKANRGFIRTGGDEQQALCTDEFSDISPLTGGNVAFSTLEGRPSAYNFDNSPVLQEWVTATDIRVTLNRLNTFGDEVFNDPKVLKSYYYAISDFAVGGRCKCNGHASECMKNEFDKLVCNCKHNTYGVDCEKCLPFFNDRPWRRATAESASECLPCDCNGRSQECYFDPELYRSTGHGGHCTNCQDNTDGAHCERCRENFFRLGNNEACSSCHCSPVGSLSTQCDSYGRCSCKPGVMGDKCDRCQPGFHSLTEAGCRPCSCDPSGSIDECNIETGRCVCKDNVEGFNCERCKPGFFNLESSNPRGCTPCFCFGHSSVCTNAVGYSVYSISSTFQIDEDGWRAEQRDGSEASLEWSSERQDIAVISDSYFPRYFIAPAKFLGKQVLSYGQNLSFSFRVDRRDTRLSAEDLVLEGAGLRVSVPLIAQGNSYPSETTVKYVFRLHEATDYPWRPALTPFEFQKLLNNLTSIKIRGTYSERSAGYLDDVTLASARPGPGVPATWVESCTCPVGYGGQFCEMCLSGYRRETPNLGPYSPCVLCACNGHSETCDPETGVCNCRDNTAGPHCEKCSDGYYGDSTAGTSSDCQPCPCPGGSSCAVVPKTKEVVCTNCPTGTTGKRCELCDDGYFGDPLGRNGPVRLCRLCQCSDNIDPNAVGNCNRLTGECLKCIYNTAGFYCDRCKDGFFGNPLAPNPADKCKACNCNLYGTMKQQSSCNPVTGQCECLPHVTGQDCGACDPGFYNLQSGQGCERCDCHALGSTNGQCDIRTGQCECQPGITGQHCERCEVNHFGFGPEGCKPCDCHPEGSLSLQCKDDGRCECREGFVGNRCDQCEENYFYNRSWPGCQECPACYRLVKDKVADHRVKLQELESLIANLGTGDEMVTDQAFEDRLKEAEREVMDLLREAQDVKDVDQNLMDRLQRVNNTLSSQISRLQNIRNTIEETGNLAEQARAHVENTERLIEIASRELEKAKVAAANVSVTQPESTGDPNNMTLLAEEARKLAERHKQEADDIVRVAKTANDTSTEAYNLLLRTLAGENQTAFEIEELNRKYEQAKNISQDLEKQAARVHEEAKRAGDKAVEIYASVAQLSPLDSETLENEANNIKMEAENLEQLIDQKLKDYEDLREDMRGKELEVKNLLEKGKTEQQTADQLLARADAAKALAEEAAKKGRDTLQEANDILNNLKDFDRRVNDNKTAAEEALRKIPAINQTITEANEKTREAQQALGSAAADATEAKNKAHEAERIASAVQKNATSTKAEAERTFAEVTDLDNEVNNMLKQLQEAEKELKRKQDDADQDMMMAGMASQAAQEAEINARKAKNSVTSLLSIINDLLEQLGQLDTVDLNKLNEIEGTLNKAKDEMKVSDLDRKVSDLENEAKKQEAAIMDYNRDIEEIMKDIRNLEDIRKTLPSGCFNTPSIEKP

B1: humanized 19C12 antibody H2L3 (antibody, V domains shown)
VH: QVQLQQSGAELVKPGASVKVSCKASGYAFSTYWMNWVRQAPGQGLEWIGQIYPGDGDTNYNGKFKGRVTITADKSTSTAYMELSSLRSEDTAVYFCARSDGYYDYWGQGTTVTVSS
VL: NIVLTQSPASLAVSLGERATISCRASESVDSYGTSFMHWYQQKPGQPPKLLICLASSLESGVPARFSGSGSRTDFTLTIDPVEAEDAATYYCQQNNEDPPTFGAGTKLEIKR
notes: Intact humanized IgG (human Fc); also called VHv2/VLv3; Hu19C12 H2L3
For B1, the binding result in assay [1], in assay [2] and in assay [3] was “binds” throughout.

B2: humanized 19C12 antibody H2L4 (antibody, V domains shown)
VH: B1 VH
VL: B1 VL with C53S, R72G, D80S
notes: Intact humanized IgG (human Fc); also called VHv2/VLv4
On to B2, for which the binding result in assay [1], in assay [2] and in assay [3] was “binds” each time.

B3: humanized 19C12 antibody H3L6 (antibody, V domains shown)
VH: B1 VH with Q1E
VL: B1 VL with N1D, C53S, R72G, D80S
notes: Intact humanized IgG (human Fc); also called VHv3/VLv6
For the molecule B3, the binding result in assay [1], in assay [2] and in assay [3] was “binds” in each case.

B4: humanized 19C12 antibody H2L6 (antibody, V domains shown)
VH: B1 VH
VL: B1 VL with N1D, C53S, R72G, D80S
notes: Intact humanized IgG (human Fc); also called VHv2/VLv6
For the molecule B4, the binding result in assay [1], in assay [2] and in assay [3] was “binds” each time.

B5: mouse monoclonal antibody 5B5 (antibody, V domains shown)
VH: QVQLQQPGAELVKPGASVKLSCKASGYTFTSYWMHWVKQRPGRGLEWIGRIDPNSGGTKHNEKFKSKATLTVDKPSSTAYMQLSSLTSEDSAVYYCAGSPSYYDYALHYAMDYWGQGTSVTVSS
VL: not shown
In assay [4], B5 registered a Kd of 7.33 nM, an off-rate constant (koff) of 0.0105 s⁻¹ and a kon of 1.43e+06 M⁻¹ s⁻¹. Moreover, in assay [5], the affinity, expressed as Kd, was 5.27 nM; the koff turned out to be 0.0116 s⁻¹; the kon is 2.2e+06 M⁻¹ s⁻¹. Also, in assay [6], the binding result is on record as “no binding”.
